Experimental data from patent publication US10429300B2, “Surface plasmon resonance approach to monitor protein-ligand interactions” (The Johns Hopkins University, priority 2015, dated 2019).

T1: rNav1.2a VSD IV paddle peptide (R1629A/L1630A, SEQ ID NO: 4) (Rattus norvegicus, UniProt P04775, L1630A/R1629A)
T1 construct: purchased ProteoGenix; host or cells: chemical synthesis (Fmoc solid phase)
T1 sequence (P04775 1605-1636 R1629A/L1630A): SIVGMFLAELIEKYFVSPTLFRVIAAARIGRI

T2: rNav1.2a VSD II paddle peptide (V843A, SEQ ID NO: 2) (Rattus norvegicus, UniProt P04775, V843A)
T2 construct: purchased ProteoGenix; host or cells: chemical synthesis (Fmoc solid phase)
T2 sequence (P04775 832-856 V843A): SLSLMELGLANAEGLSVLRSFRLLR

B1: LqqV: Nav channel-selective α-scorpion toxin from Leiurus quinquestriatus hebraeus (protein)
chain: LKDGYIVDDKNCTFFCGRNAYCNDECKKKGGESGYCQWASPYGNACWCYKLPDRVSIKEKGRCN
B2: TsVII: β-scorpion toxin from the Brazilian scorpion Tityus serrulatus (protein, UniProt P15226 21-81, looked up)
Beta-mammal/insect toxin Ts1: KEGYLMDHEGCKLSCFIRPSGYCGRECGIKKGSSGYCAWPACYCYGLPNWVKVWDRATNKC
B3: BomIV: α-like scorpion toxin from Buthus occitanus mardochei (protein)
chain: GRDAYIAQPENCVYECAKNSYCNDLCTKNGAKSGYCQWLGKYGNACWCEDLPDNVPIRIPGKCHF
B4: AaHI: Nav channel-selective α-scorpion toxin from Androctonus australis hector (protein)
chain: KRDGYIVYPNNCVYHCVPPCDGLCKKNGGSSGSCSFLVPSGLACWCKDLPDNVPIKDTSRKCT

Tests used:
[1] = molecular target: T1, rNav1.2a VSD IV paddle peptide (R1629A/L1630A, SEQ ID NO: 4); experiment: SPR on immobilized rNav1.2a VSD IV paddle peptide; format: binding; conditions: 100 nM toxin; 500 fmol peptide
[2] = molecular target: T2, rNav1.2a VSD II paddle peptide (V843A, SEQ ID NO: 2); experiment: SPR on immobilized rNav1.2a VSD II paddle peptide; format: binding; conditions: 100 nM toxin; 500 fmol peptide
Procedure: SPR experiments were performed at 25° C. on a Biacore™ T200 instrument (GE Healthcare) using 150 mM NaCl, 3 mM EDTA, 0.005% surfactant P20, and 10 mM HEPES-NaOH, pH 7.4, for the coupling protocol or 50 mM phosphate, pH 7.2, as running buffer. Neutravidin (Thermo Fisher Scientific) was immobilized on CM5 sensor chips (GE Healthcare) using an amine coupling chemistry. All chemicals were obtained from Sigma-Aldrich. […] In all SPR experiments, nonspecific binding obtained in the control flow cell was subtracted from the signal obtained in the experimental flow cell. For qualitative binding analysis, toxins (100 nM in running buffer containing 0.1% BSA) were injected at a flow rate of 20 μl/min over 2 min. […] In between injections, the surface of the sensor chip was regenerated by injecting 1 M NaCl (15 s at 30 l/min). The bulk signal caused by refractive index differences between the flow buffer and the buffer containing the analyte was systematically excluded from the data-fitting process. It is worth noting that isolating a paddle motif (ligand) can induce conformational changes that can affect toxin (analyte) efficacy. […] Sensorgrams can reveal such ligand heterogeneity by displaying biphasic dissociation curves that cannot be fitted with the frequently used Langmuir model, which assumes a 1:1 stoichiometry of analyte to ligand. To account for a possible heterogeneity of surface sites, we calculated the rate constants and affinity equilibrium dissociation constants (KD) for AaHII by a fit to a heterogeneous ligand model incorporated into the Biacore T200 Evaluation™ software (v1.0). This model assumes the presence of two sites on the ligand that can bind analyte and can be described by these equations in which A represents the analyte and B1/B2 represents the heterogeneous ligand:
(A) Shown are the CD spectra of the rNav1.2a VSD II and IV paddle peptides used in this paper. […] (B) Representative association and dissociation kinetic curves obtained using SPR after the application of varying concentrations of AaHII (15-2,000 nM) over a sensor chip to which 50 fmol of the rNav1.2a VSD IV paddle peptide was linked. Toxin was applied after obtaining a steady baseline. Colored traces represent toxin binding obtained after subtraction of the signal from the control flow cell. […] Toxin concentrations are indicated on the right in a shade of gray corresponding to the sensorgram. (C) Representative SPR traces after the application of 100 nM KTX, AaHI, AaHII, LqqV, BomIV, TsVII, and CssIV over a sensor chip to which the rNav1.2a VSD II (left) or IV (right) paddle peptide (500 fmol) was linked. Toxin was applied after obtaining a steady baseline. (D) Binding capacities of 100 nM α-scorpion toxins AaHI, AaHII, LqqV, the α-like scorpion toxin BomIV, and the β-scorpion toxins TsVII and CssIV to the VSD II and IV paddle motifs using SPR (error bars represent±SEM). Y-axis represents the maximum RUs obtained after toxin application.
Next, the VSD IV peptide was fixed on SPR sensor chips by adding a K-linked biotin group to the C terminus, resulting in a 32-amino acid peptide altogether (SEQ ID NO: 4 which is mutated SEQ ID NO: 3 of FIG. 2A).

WT rKv2.1 = experiment: Two-electrode voltage-clamp, WT rKv2.1 in Xenopus oocytes; format: cell-based, rat; conditions: 1 μM toxin
From the text: The DNA sequence of rat (r)Nav1.2a (provided by A. Goldin, University of California, Irvine, Irvine, Calif.), rKv2.1 (provided by K. J. Swartz, National Institutes of Health), and the rNav1.2a/Kv2.1 VSD II or IV chimera was confirmed by automated DNA sequencing, and cRNA was synthesized using T7 polymerase (mMessage mMachine™ kit; Life Technologies) after linearizing the DNA with appropriate restriction enzymes. Channels were expressed in Xenopus oocytes (obtained from Xenopus 1) and studied after a 1-d incubation after cRNA injection (incubated at 17° C. in 96 mM NaCl, 2 mM KCl, 5 mM HEPES, 1 mM MgCl2, 1.8 mM CaCl2, and 50 μg/ml gentamycin, pH 7.6 with NaOH) using two-electrode voltage-clamp recording techniques (OC-725C; Warner Instruments) with a 150-μl recording chamber. Data were filtered at 4 kHz and digitized at 20 kHz using pClamp™ 10 software (Molecular Devices). Microelectrode resistances were 0.5-1.5 MΩ when filled with 3 M KCl. For Kv chimera channel experiments, the external recording solution contained (mM): 50 KCl, 50 NaCl, 5 HEPES, 1 MgCl2, and 0.3 CaCl2, pH 7.6 with NaOH. For rNav1.2a experiments, the external recording solution contained (mM): 100 NaCl, 5 HEPES, 1 MgCl2, and 1.8 CaCl2, pH 7.6 with NaOH. All experiments were performed at ˜22° C. Leak and background conductances, identified by blocking the channel with agitoxin-2 (provided by K. J. Swartz), have been subtracted for all of the Kv channel currents shown. […] For all channels, voltage-activation relationships were recorded in the absence and presence of toxin. The ratio of currents (I/I0) recorded in the presence (I) and absence (I0) of toxin was calculated for voltages typically ranging from −140 to 10 cmV, depending on the construct. […] The apparent equilibrium dissociation constant (apparent KD) for Kv channels was calculated according to KD=((1/(1c−cFu^1/4))c−c1)[toxin], assuming four independent toxin-binding sites per channel. […]

[3] = test system: rNav1.2a/Kv2.1 VSD IV paddle chimera; experiment: Two-electrode voltage-clamp, rNav1.2a/Kv2.1 VSD IV paddle chimera in Xenopus oocytes; format: cell-based, rat; conditions: 100 nM toxin; for depolarizing shift in midpoint (V1/2): Boltzmann fit, n=3
Sequence of rNav1.2a/Kv2.1 VSD IV paddle chimera (P04775 1605-1636 limits assumed, stated change not applied): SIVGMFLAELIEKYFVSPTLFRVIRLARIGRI
From the text: (§1) The DNA sequence of rat (r)Nav1.2a (provided by A. Goldin, University of California, Irvine, Irvine, Calif.), rKv2.1 (provided by K. J. Swartz, National Institutes of Health), and the rNav1.2a/Kv2.1 VSD II or IV chimera was confirmed by automated DNA sequencing, and cRNA was synthesized using T7 polymerase (mMessage mMachine™ kit; Life Technologies) after linearizing the DNA with appropriate restriction enzymes. Channels were expressed in Xenopus oocytes (obtained from Xenopus 1) and studied after a 1-d incubation after cRNA injection (incubated at 17° C. in 96 mM NaCl, 2 mM KCl, 5 mM HEPES, 1 mM MgCl2, 1.8 mM CaCl2, and 50 μg/ml gentamycin, pH 7.6 with NaOH) using two-electrode voltage-clamp recording techniques (OC-725C; Warner Instruments) with a 150-μl recording chamber. Data were filtered at 4 kHz and digitized at 20 kHz using pClamp™ 10 software (Molecular Devices). Microelectrode resistances were 0.5-1.5 MΩ when filled with 3 M KCl. For Kv chimera channel experiments, the external recording solution contained (mM): 50 KCl, 50 NaCl, 5 HEPES, 1 MgCl2, and 0.3 CaCl2, pH 7.6 with NaOH. For rNav1.2a experiments, the external recording solution contained (mM): 100 NaCl, 5 HEPES, 1 MgCl2, and 1.8 CaCl2, pH 7.6 with NaOH. All experiments were performed at ˜22° C. Leak and background conductances, identified by blocking the channel with agitoxin-2 (provided by K. J. Swartz), have been subtracted for all of the Kv channel currents shown. […] Voltage-activation relationships were obtained by measuring tail currents for Kv channels or steady-state currents and calculating conductance for Nav channels, and a single Boltzmann function was fitted to the data according to I/Imax=[1c+cexp(−zF(Vc−cV1/2)/RT)]^−1, where I/Imax is the normalized tail-current amplitude, z is the equivalent charge, V1/2 is the half-activation voltage, F is Faraday's constant, R is the gas constant, and T is temperature in kelvin. For all channels, voltage-activation relationships were recorded in the absence and presence of toxin. The ratio of currents (I/I0) recorded in the presence (I) and absence (I0) of toxin was calculated for voltages typically ranging from −140 to 10 cmV, depending on the construct. […] The apparent equilibrium dissociation constant (apparent KD) for Kv channels was calculated according to KD=((1/(1c−cFu^1/4))c−c1)[toxin], assuming four independent toxin-binding sites per channel. Results are given as mean±SEM unless noted otherwise. Offline data analysis was performed using Clampfit 10™ (Molecular Devices), Origin 8.0™ (OriginLab), and Excel™ (Microsoft). All chemicals were obtained from Sigma-Aldrich.
(§2) Representative sodium currents were elicited by a 50-ms depolarization to a suitable membrane voltage (−20 to −15 mV) before (black) and after toxin addition (green) from a holding voltage of −90 mV. […] For each toxin, K^+ currents were elicited by a 300-ms depolarization to 0 mV from a holding voltage of −90 mV (tail voltage was −60 mV). […] For each toxin, K^+ currents (top) were elicited by a 300-ms depolarization near the foot of the voltage-activation curve (bottom) from a holding voltage of −90 mV.

rNav1.2a = experiment: Two-electrode voltage-clamp, rNav1.2a expressed in Xenopus oocytes; format: cell-based, rat; conditions: 100 nM toxin; for effect on rNav1.2a fast inactivation: 50-ms test pulse; for fast inactivation time constant (τ) after toxin application: single-exponential fit of current decay, n=3, mean±SEM
From the text: as §1, §2

[4] = molecular target: rNav1.2a/Kv2.1 VSD II paddle chimera; conditions: read-out: apparent KD, paddle motif in the domain II voltage sensor; cited from earlier work
Sequence of rNav1.2a/Kv2.1 VSD II paddle chimera (P04775 832-856 limits assumed, change not shown): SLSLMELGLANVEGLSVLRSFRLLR

[5] = test system: rNav1.2a/Kv2.1 VSD IV paddle chimera; conditions: cited from earlier work

| Molecule | SPR binding to VSD IV paddle peptide [1] | SPR binding to VSD II paddle peptide [2] | effect on WT Kv2.1 K+ current (WT rKv2.1) | K+ current inhibition of VSD IV chimera [3] | depolarizing shift in midpoint (V1/2) [3] [mV] | effect on rNav1.2a fast inactivation (rNav1.2a) | fast inactivation time constant (τ) after toxin application (rNav1.2a) | Kd [4] [nM] | binding to the VSD IV paddle, electrophysiological data from chimeras [5] |
| --- | --- | --- | --- | --- | --- | --- | --- | --- | --- |
| kaliotoxin (GVEINVKCSGSPQCLKPCKDAGMRFGKCMNRKCHCTPK) [KTX, negative control, reference compound] | did not bind | did not bind | – | – | – | – | – | – | – |
| B1 | – | a response was not obtained | insensitive | robust voltage-dependent K^+ current inhibition | > 50 | inhibits rNav1.2a fast inactivation | 4.6±0.1 | – | – |
| B2 | responded | responded | – | – | – | – | – | 112 ± 12 | can also bind |
| B3 | – | a response was not obtained | insensitive | robust voltage-dependent K^+ current inhibition | ~26 | inhibits rNav1.2a fast inactivation | 8.5±0.1 | – | – |
| B4 | – | a response was not obtained | insensitive | robust voltage-dependent K^+ current inhibition | ~15 | inhibits rNav1.2a fast inactivation | 4.7±0.1 | – | – |
